Target: Orai1 V102A (human, UniProt Q96D31-1 1-301, V102A)
Test: cell-based or functional assay

Orai1 V102A, sequence (Q96D31 whole entry V102A): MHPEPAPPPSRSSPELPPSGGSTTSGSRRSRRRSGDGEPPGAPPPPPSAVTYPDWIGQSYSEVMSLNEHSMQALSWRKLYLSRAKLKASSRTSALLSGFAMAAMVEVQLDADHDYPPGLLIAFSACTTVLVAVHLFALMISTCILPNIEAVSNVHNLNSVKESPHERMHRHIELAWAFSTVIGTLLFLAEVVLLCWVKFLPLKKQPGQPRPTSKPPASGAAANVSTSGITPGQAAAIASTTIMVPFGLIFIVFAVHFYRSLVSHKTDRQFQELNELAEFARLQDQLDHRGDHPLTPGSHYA

B1: STIM1 Δα2 (STIM1 Δ393-398), CFP/YFP-labeled (natural protein, human, UniProt Q13586-1 23-685, looked up)
chain: LSHSHSEKATGTSSGANSEESTAAEFCRIDKPLCHSEDEKLSFEAVRNIHKLMDDDANGDVDVEESDEFLREDLNYHDPTVKHSTFHGEDKLISVEDLWKAWKSSEVYNWTVDEVVQWLITYVELPQYEETFRKLQLSGHAMPRLAVTNTTMTGTVLKMTDRSHRQKLQLKALDTVLFGPPLLTRHNHLKDFMLVVSIVIGVGGCWFAYIQNRYSKEHMKKMMKDLEGLHRAEQSLHDLQERLHKAQEEHRTVEVEKVHLEKKLRDEINLAKQEAQRLKELREGTENERSRQKYAEEELEQVREALRKAEKELESHSSWYAPEALQKWLQLTHEVEVQYYNIKKQNAEKQLLVAKEGAEKIKKKRNTLFGSSSLDDVDHKILTAKQALSEVTAALRERLHRWQQIEILCGFQIVNNPGIHSLVAALNIDPSWMGSTRPNPAHFIMTDDVDDMDEEIVSPLSMQSPSLQSSVRQRLTEPQHGLGSQRDLTHSDSESSLHMSDRQRVAPKPPQMSRAADEALNAMTSNGSHRLIEGVHPGSLVEKLPDSPALAKKALLALNHGLDKAHSLMELSPSAPPGGSPHLDSSRSHSPSSPDPDTPSPVGDSRALQASRNTRIPHLAGKKAVAEEDNGSIGEETDSSPGRKKFPLKIFKKPLKK
Vrev [mV] of Orai1 V102A currents, whole-cell patch clamp in HEK293 cells: 31.6 mV

From paper PMC8558294, “Defects in the STIM1 SOARα2 domain affect multiple steps in the CRAC channel activation cascade” (Cellular and Molecular Life Sciences: CMLS, 2021)
